Values belong to the binder of their own block, whether it stands above or below them. Where no end group is shown, it is not given here.
Key:
TTR34-54cyc [1] = target: T1, TTR34-54cyc (human, cyclic, disulfide between the two Cys in the poly-Gly linkers); experiment: ELISA, ELISA-1
Biotin.TTR40-49 = target: T2, Biotin.TTR40-49 (human, not fully specified (N-terminus)); experiment: ELISA
T2 chain: TWEPFASGKT

TTR34-54cyc [2] = target: T1, TTR34-54cyc; experiment: ELISA, ELISA-2
TTR40-49 = target: T3, TTR40-49 (human); experiment: ELISA
T3 chain: TWEPFASGKT

mis.WT-TTR [3] = target: mis.WT-TTR (human); experiment: ELISA, ELISA-1
mis.WT-TTR [4] = target: mis.WT-TTR (human); experiment: ELISA, ELISA-2

T1 sequence (chain, as listed by the source): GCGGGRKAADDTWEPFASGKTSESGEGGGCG

EC50 (TTR34-54cyc [1]): 0.027 nM
binding result (Biotin.TTR40-49): no binding
EC50 (TTR34-54cyc [2]): 0.66 nM
binding result (TTR40-49): no binding
B1: NI-301.37F1 (antibody, V domains shown)
VH: QVQLQESGPGLVKPSETLSLTCSVSGGSIISRSSYWGWIRQPPGKGLEWIGGIYHSGNTYDNPSLKSRLTMSVDTSKNQFSLNLRSVTAADTAVYYCARIVPGGDAFDIWGQGTMVTVSS
VL: DIQMTQSPSSLSASVGDRVTIACRASQSVGTYLNWYQQKRGKAPKLLIFAASSLQSGVPSRFSGSGSGTDFTLTISSLQPEDFATYYCQQSYSSPPTFGQGTKVEIK

EC50 (mis.WT-TTR [3]): 0.338 nM
EC50 (mis.WT-TTR [4]): 8.3 nM
B2: NI-301.37F1 (antibody, V domains shown)
VH: B1 VH
VL: B1 VL
modifications: plasma-purified wild-type TTR, misfolded/aggregated at pH 3.0

— patent publication US20260374812 (published 2026)
